[ ]: non-standard residue; d: D form. CPP12 = cyclic cell-penetrating peptide fused at the N-terminus; pY = N[C@@H](Cc1ccc(OP(=O)(O)O)cc1)C(=O)O; βAla = NCCC(=O)O
Columns and labels:
CPP12-pTyr = molecular target: T1, CPP12-pTyr (Homo sapiens, not fully specified); assay: competition fluorescence polarization
T1 chain: {CPP12-βAla-βAla}-G[pY]LPQTV-NH2

[1] = molecular target: T2, ac-pTyr (gp130-derived phosphopeptide) (Homo sapiens); assay: competition fluorescence polarization
T2 chain: Ac-G[pY]LPQTV-NH2

B1: STAT3 127-711 (protein)
chain: GQANHPTAAVVTEKQQMLEQHLQDVRKRVQDLEQKMKVVENLQDDFDFNYKTLKSQGDMQDLNGNNQSVTRQKMQQLEQMLTALDQMRRSIVSELAGLLSAMEYVQKTLTDEELADWKRRQQIACIGGPPNICLDRLENWITSLAESQLQTRQQIKKLEELQQKVSYKGDPIVQHRPMLEERIVELFRNLMKSAFVVERQPCMPMHPDRPLVIKTGVQFTTKVRLLVKFPELNYQLKIKVCIDKDSGDVAALRGSRKFNILGTNTKVMNMEESNNGSLSAEFKHLTLREQRCGNGGRANCDASLIVTEELHLITFETEVYHQGLKIDLETHSLPVVVISNICQMPNAWASILWYNMLTNNPKNVNFFTKPPIGTWDQVAEVLSWQFSSTTKRGLSIEQLTTLAEKLLGPGVNYSGCQITWAKFCKENMAGKGFSFWVWLDNIIDLVKKYILALWNEGYIMGFISKERERAILSTKPPGTFLLRFSESSKEGGVTFTWVEKDISGKTQIQSVEPYTKQQLNNMSFAEIIMGYKIMDATNILVSPLVYLYPDIPKEEAFGKYCRPESQEHPEADPGSAAPYLKTKFI
For B1, the IC50 (CPP12-pTyr) was 410 nM and the IC50 [1] was 610 nM.

— PMC7294595 (2020)
